Measurements as given in the DeepSol protein solubility set.

Assay: soluble on expression in E. coli; label from the status in PepcDB or PDB records
For “ASMTGGQQMGRDPGMTVTSQVKPEDEMDNWGRLILDGVSYSDMVGARDRPKEITWFDYWMSLANEYEQEAERKVALGHDLSAGELLMSAALCAQYAQFLWFDERRQKGQARKVELYQKAAPLLSPPAERHELVVDGIPMPVYVRIPEGPGPHPAVIMLGGLESTKEESFQMENLVLDRGMATATFDGPGQGEMFEYKRIAGDYEKYTSAVVDLLTKLEAIRNDAIGVLGRSLGGNYALKSAACEPRLAACISWGGFSDLDYWDLETPLTKESWKYVSKVDTLEEARLHVHAALETRDVLSQIACPTYILHGVHDEVPLSFVDTVLELVPAEHLNLVVEKDGDHCCHNLGIRPRLEMADWLYDVLVAGKKVAPTMKGWPLEHHHHHH”, the “soluble on expression in E. coli” value was “soluble”.
For “MSEAPATEHGQCLCGAVGFTATLGAREFGVCHCSMCRRWSGGAFMAVECTDIAFENEQRLGVYSSSKWGERCFCKNCGSTLVWRSKDGKHFAVSLQAFDKPSSFTFVQQIFTDEKPSSYSFAQTTQNMTGPEFIAMITSAEH”, the “soluble on expression in E. coli” value was “not soluble”.
In the case of “MTKQDQLIVEKMEQTYEAFSPKLANLIEALDAFKEHYEEYATLRNFYSSDEWFRLANQPWDDIPCGVLSEDLLFDMIGDHNQLLADILDLAPIMYKHM”, the “soluble on expression in E. coli” value is reported as “not soluble”.
For “MSLSSDRLIYLPLGGAGEIGMNAYVYGYGKPGKERLILVDLGVTFPDMDTTPGVDLIMPDIAWLAKNRDRLEAVFITHAHEDHVGAVAHLYDRLGAPVYARAFTANIARRKMGEHGHPDEAVTTVSAWPEMTEAGPFQVGFVPLSHSIPESSGLVIDTPAGRIVHSGDFKLDENPIVGEAFDRKLWEEVAKPGVKVFACDSTNVMSRHPGRSESSVGGEIEKLVGTAEGVFVATTFASNVARVLTLAEAGQRAGRSVCLLGRAMRRMIEAAIETGVLADFPRTVSPEDARNIPRENLMLIVTGSQGERRAASAQLANGKYQGIELKEGDMFLFSSKTIPGNERGVLRIVNQLSEKGVDVIDDSSGLYHVSGHANRPDLETMHEILQPEILVPMHGEHRHLREHVKLADKRGIKGILAVNGMMIDLTGEGHHHHHH”, the “soluble on expression in E. coli” value was “soluble”.
With “MTHIYEPRLSRIAIDKLRPTQIAVGFREVELKRKEWRETRKKDGDDFLGNHIVPVVAGPKDRAYLIDHHHLVLALSKEGVEHVLTSEVAKFSHLGKDEFWSVMDHRNLIYPFDAQGLRRQSGDIPKNIHDLEDDPFRSLAGALRMAGGYAKVIIPFSEFGWADFLRRRIDRDLLSDSFDDALAEAMKLAKSREARHLPGWCGVEEAAALEHHHHHH” the “soluble on expression in E. coli” value was “soluble”.
With “MAIRKLLLLLKPIDPYPFLQTEGASLIKNPQVLINYLPQMRLISILNPDHVLQYLESRCKVHKNAIKFCQEILSKKPVEWKPISRNDLSHPIRDVDMVITVGGDGTLLHASHFIDDSVPVLGVNSDPTQAHEVEELSDQFDASRSTGHLCAATVENFEQVLDDILFGRVVPAKVSRISLKLNSETLLSHALNDILIAQPCPAAVSRFSFKIKNKDGASSPKTVNCRSSGLRICTAAGSTAAMQSAGGFVMPMLSRDLQFMVREPISPGSTASLMHSTFKPDQFMDVNWYSDHGTIYIDGCQVQHSVQLGDTIEISSDAPVLNVFLSHGISQIRSRY” the “soluble on expression in E. coli” value was “soluble”.
With “MSEESQAFQRQLTALIGYDVTDVSNVHDDELEFTRRGLVTPRMAEVASRDPKLYAMHPWVTSKPLPEYLWKKIANNCIFIVIHRSTTSQTIKVSPDDTPGAILQSFFTKMAKKKSLMDIPESQSEQDFVLRVCGRDEYLVGETPIKNFQWVRHCLKNGEEIHVVLDTPPDPALDEVRKEEWPLVDDCTGVTGYHEQLTIHGKDHESVFTVSLWDCDRKFRVKIRGIDIPVLPRNTDLTVFVEANIQHGQQVLCQRRTSPKPFTEEVLWNVWLEFSIKIKDLPKGALLNLQIYCGKAPALSSKASAESPSSESKGKVQLLYYVNLLLIDHRFLLRRGEYVLHMWQISGKGEDQGSFNADKLTSATNPDKENSMSISILLDNYCHPIALPKHQPTPDPEGDRVRAEMPNQLRKQLEAIIATDPLNPLTAEDKELLWHFRYESLKHPKAYPKLFSSVKWGQQEIVAKTYQLLARREVWDQSALDVGLTMQLLDCNFSDENVRAIAVQKLESLEDDDVLHYLLQLVQAVKFEPYHDSALARFLLKRGLRNKRIGHFLFWFLRSEIAQSRHYQQRFAVILEAYLRGCGTAMLHDFTQQVQVIEMLQKVTLDIKSLSAEKYDVSSQVISQLKQKLENLQNSQLPESFRVPYDPGLKAGALAIEKCKVMASKKKPLWLEFKCADPTALSNETIGIIFKHGDDLRQDMLILQILRIMESIWETESLDLCLLPYGCISTGDKIGMIEIVKDATTIAKIQQSTVGNTGAFKDEVLNHWLKEKSPTEEKFQAAVERFVYSCAGYCVATFVLGIGDRHNDNIMITETGNLFHIDFGHILGNYKSFLGINKERVPFVLTPDFLFVMGTSGKKTSPHFQKFQDICVKAYLALRHHTNLLIILFSMMLMTGMPQLTSKEDIEYIRDALTVGKNEEDAKKYFLDQIEVCRDKGWTVQFNWFLHLVLGIKQGEKHSAHHHHHH” the “soluble on expression in E. coli” value was “soluble”.
In the case of “MGSDKIHHHHHHMDIKQLKFLIALDQTRHFGQAAALCHITQPTLSMRLRNLEDELDLVLVKRGQRFEGFTEAGERILAWARTLLAAHDGLQAEAASCRGQVVGSLRLGTVPLASFNPMHLLLPLREKYPELHFQLSSLSSEQVIDGLSRNQLDLGICYLDQVNTSFFEVIELGTTTMGLLHDTRHFQFTSDRLRWDELGDIPLGLLSKGMHYRQSLDLSFRSRGLEPNAVLESDSSFQLIQAINTGICCAIMPLDCGLEDLSEHLRIVPVADAAIHSPVGLLLRRSEPRSAIAEQCFAEARGLFQAS”, the “soluble on expression in E. coli” value is reported as “not soluble”.
For “MGQPIITRDAGRYFLTDRIRHEVDWWNTPQARGEEPPPVQKPVAPGAMVIPLPPPATWGIPPCSLADGIARRESRRRFRAVPLTPEELAFLLWATQGVRARLNEAAVLRTVPSAGCRHPFETYLAILSVTGIEPAVYRYLPLDHALVLEREVPDLAATVTAAAHGQRFAGEAAVTFVWTAIPARTEWRYAEASYKVIALDAGHVCQNLYLACEAIGAGTCAIAAYRQALADELLGVDGREEFTVYLAPVGKV”, the “soluble on expression in E. coli” value was “not soluble”.
For “KKGYEVLRDPHLNKGMAFTLEERQQLNIHGLLPPCFLGQDAQVYSILKNFERLTSDLDRYILLMSLQDRNEKLFYKVLTSDIERFMPIVYTPTVGLACQHYGLAFRRPRGLFITIHDRGHIATMLQSWPESVIKAIVVTDGERILGLGDLGCYGMGIPVGKLALYTACGGVKPHQCLPVMLDVGTDNETLLKDPLYIGLRHKRIRGQAYDDLLDEFMEAVTSRYGMNCLIQFEDFANANAFRLLHKYRNKYCTFNDDIQGTASVAVAGLLAALRITKNRLSDHTVLFQGAGEAALGIANLIVMAMQKEGVSKEEAIKRIWMVDSKGLIVKGRASLTPEKEHFAHEHCEMKNLEDIVKDIKPTVLIGVAAIGGAFTQQILQDMAAFNKRPIIFALSNPTSKAECTAEQLYKYTEGRGIFASGSPFDPVTLPSGQTLYPGQGNNSYVFPGVALGVISCGLKHIGDDVFLTTAEVIAQEVSEENLQEGRLYPPLVTIQQVSLKIAVRIAKEAYRNNTASTYPQPEDLEAFIRSQVYSTDYNCFVADSYTWPEEAMKVK”, the “soluble on expression in E. coli” value was “soluble”.
For “MGSSHHHHHHSSGRENLYFQGHMKPDAHQVKQFLLNLQDTICQQLTAVDGAEFVEDSWQREAGGGGRSRVLRNGGVFEQAGVNFSHVHGEAMPASATAHRPELAGRSFEAMGVSLVVHPHNPYVPTSHANVRFFIAEKPGADPVWWFGGGFDLTPFYGFEEDAIHWHRTARDLCLPFGEDVYPRYKKWCDEYFYLKHRNEQRGIGGLFFDDLNTPDFDRCFAFMQAVGKGYTDAYLPIVERRKAMAYGERERNFQLYRRGRYVEFNLVWDRGTLFGLQTGGRTESILMSMPPLVRWEYDYQPKDGSPEAALSEFIKVRDWV”, the “soluble on expression in E. coli” value was “soluble”.
In the case of “DQLYALFDAFFDEDLSQSPEQATSLGLDTGKHADARSRLSDRSTAAWLRDRAEPAERIARLKTIDRKALSGDDAINYDTALFNYEARQGTSRFDFGDGARPFVLTQFYGSYISTPSFLDGRHKIASAADADAYLGRMKAFATVLDQETQRAGADAAKGVIPADFIVDKAIAQLQQFRSLPVEKNVLVASAARRAKAYGDYDAKAAAILTGEIHPALDRQIAALQAMRAKAVHDAGIGRLKDGDAFYAALLKIYTTTNKTPEEVHRLGLEEGAEIQARMDEILKKRGLTQGTVGQRMARLNTMPGQVFANTDEGRAELLAYCTERLAKLQPLLPQWFGVMPKTPVVVRRVPAYTEAGSAGAYYERPALDGSRPGAVYINLRDTAERPRWSLATLMHHEGAPGHHFQLALVAESNLPKLRQNMGFSANTEGWALYAEQVAMEMGIYDDGDDLGLLGMYQARLFRASRCVVDTGIHAKGWSREKAIAYMIETGGDPEVRVSREVERYCANPGQACSYKVGHTVWAALRERTKQRLGSKFDIKRFHDTALLVGPAPLTVLEGVLDRWQ”, the “soluble on expression in E. coli” value is reported as “not soluble”.
In the case of “SDLVITQELARAESQQDAASLKKAYELIKSANLGKSEFDPSESFSPDLFVLCAEQALKMRQPEVSEDCIQMYFKVKAPITQFLGRAHLCRAQMCAPKSAENLEEFENCVTEYMKAINFAKGEPRYYFLVYNASVLYWQMVRPFLKPGYRHHLIPSLSQIINVLSQTEEEDKEWRAELMLELLECYLQAGRKEEAARFCSTAAPFIKSHVPQKYRQIFSVMVNQRIRNRDVRSNFLKSHCSENCVEIT”, the “soluble on expression in E. coli” value is reported as “soluble”.
With “MGHHHHHHSHMVKPLSPLNIQKLARHHGPRLWSQLLGRLRQVGHVGSGVRDQPGQHGETPISTKNTKISQASWPTPVVPATREAEVEGSLKSWGQGCSELLSHHCTPAWATVRPCLKKKRKMKQKLTCLLPPN” the “soluble on expression in E. coli” value was “not soluble”.
With “MGSDKIHHHHHHMIKVAAAGGGTGGHLYPLLAILETLAKRVDVKVLFFAVKGKIDERVVRKDHPEFETVSIDVRGLLRPLHHPKNLWRTLKIGIATIEVKKHLKRFKPDLVVLTGGYISGVVGLAAKDLGIPIFVHEQNVVPGLAVKVLSQYAKKVFVSFERTRDYLREWQDKIVVTGCPVRETEKEAPLKDFVLVLGGSLGSEAINELMEKVYPELQETQFVHSTGSDDWTERLSVFPNVTALTYIDPMGAYWKKAIASISRAGASTIAEMMYYGVPGILIPWESSAESHQLENALEAERLGYAIVIRENEASPRKIIESIDKVVKKGKIEKMKENPASKISKEILGEIM” the “soluble on expression in E. coli” value was “not soluble”.
In the case of “MSEKPLTKTDYLMRLRRCQTIDTLERVIEKNKYELSDNELAVFYSAADHRLAELTMNKLYDKIPSSVWKFIR”, the “soluble on expression in E. coli” value is reported as “soluble”.
In the case of “MTMTLHTKASGMALLHQIQGNELEPLNRPQLKIPLERPLGEVYLDSSKPAVYNYPEGAAYEFNAAAAANAQVYGQTGLPYGPGSEAAAFGSNGLGGFPPLNSVSPSPLMLLHPPPQLSPFLQPHGQQVPYYLENEPSGYTVREAGPPAFYRPNSDNRRQGGRERLASTNDKGSMAMESAKETRYCAVCNDYASGYHYGVWSCEGCKAFFKRSIQGHNDYMCPATNQCTIDKNRRKSCQACRLRKCYEVGMMKGGIRKDRRGGRMLKHKRQRDDGEGRGEVGSAGDMRAANLWPSPLMIKRSKKNSLALSLTADQMVSALLDAEPPILYSEYDPTRPFSEASMMGLLTNLADRELVHMINWAKRVPGFVDLTLHDQVHLLECAWLEILMIGLVWRSMEHPVKLLFAPNLLLDRNQGKCVEGMVEIFDMLLATSSRFRMMNLQGEEFVCLKSIILLNSGVYTFLSSTLKSLEEKDHIHRVLDKITDTLIHLMAKAGLTLQQQHQRLAQLLLILSHIRHMSNKGMEHLYSMKCKNVVPLYDLLLEMLDAHRLHAPTSRGGASVEETDQSHLATAGSTSSHSLQKYYITGEAEGFPATV”, the “soluble on expression in E. coli” value is reported as “soluble”.
In the case of “SLAANMYRVGDYVYFENSSSNPYLIRRIEELNKTASGNVEAKVVCFYRRRDISNTLIMLADKHAKEIEEESETTVEADLTDKQKHQLKHRELFLSRQYESLPATHIRGKCSVALLNETESVLSYLDKEDTFFYSLVYDPSLKTLLADKGEIRVGPRYQADIPEMLLEGESDEREQSKLEVKVWDPNSPLTDRQIDQFLVVARAVGTFARALD”, the “soluble on expression in E. coli” value is reported as “soluble”.
